Results as given in US20210009671A1.

Biological target: Recombinant human TNFα (R&D Systems) (human) (UniProt P01375)
Sequence (P01375 77-233 limits assumed): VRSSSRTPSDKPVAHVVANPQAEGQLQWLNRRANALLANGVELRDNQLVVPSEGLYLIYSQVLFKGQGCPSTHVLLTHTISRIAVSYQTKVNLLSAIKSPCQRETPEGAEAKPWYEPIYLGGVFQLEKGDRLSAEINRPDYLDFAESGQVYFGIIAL

IC50, TNFα-induced Caspase 3 activity in U937 cells: 0.144 nM
Substance: etanercept (Fc fusion)
